Measured values published in article PMC4156074.

What was measured:
[1] = target: Full-length human plasma kallikrein, activated form (human) (UniProt P03952)
[2] = target: pKal from cynomolgus monkey plasma (cynomolgus monkey); test: enzyme inhibition (steady state, tight-binding fit); DX-2930 on purified pKal of mouse, rat, rabbit and cynomolgus monkey; apparent; data not shown
[3] = target: Full-length human plasma kallikrein, activated form (human) (UniProt P03952); test: enzyme inhibition (steady state, tight-binding fit); DX-2930 IgG (up to 10 nM, 1.5-fold dilutions) incubated 1 h at 30 °C with 1 nM pKal, free or preincubated with 600 nM 2-chain HMWK, in 20 mM Tris-HCl pH 7.5, 150 mM NaCl, 1 mM EDTA, 0.1% PEG-8000, 0.1% Triton X-100; substrate H-Pro-Phe-Arg-AMC at 10, 50 or 100 uM; Ki from Ki app by Equation 2, averaged

Full-length human plasma kallikrein, activated form (human), sequence (P03952 20-390, chain 1 of 2): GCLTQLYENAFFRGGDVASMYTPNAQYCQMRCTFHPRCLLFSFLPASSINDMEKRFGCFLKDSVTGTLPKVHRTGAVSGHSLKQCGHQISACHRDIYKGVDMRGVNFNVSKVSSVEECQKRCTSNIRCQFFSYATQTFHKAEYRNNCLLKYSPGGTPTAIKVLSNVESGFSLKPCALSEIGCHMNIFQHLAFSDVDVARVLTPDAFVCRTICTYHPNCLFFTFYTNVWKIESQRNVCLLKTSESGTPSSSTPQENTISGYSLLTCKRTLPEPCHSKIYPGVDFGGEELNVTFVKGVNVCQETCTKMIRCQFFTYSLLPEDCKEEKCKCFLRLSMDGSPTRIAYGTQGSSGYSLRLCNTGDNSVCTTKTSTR
Full-length human plasma kallikrein, activated form (human), sequence (P03952 391-638, chain 2 of 2): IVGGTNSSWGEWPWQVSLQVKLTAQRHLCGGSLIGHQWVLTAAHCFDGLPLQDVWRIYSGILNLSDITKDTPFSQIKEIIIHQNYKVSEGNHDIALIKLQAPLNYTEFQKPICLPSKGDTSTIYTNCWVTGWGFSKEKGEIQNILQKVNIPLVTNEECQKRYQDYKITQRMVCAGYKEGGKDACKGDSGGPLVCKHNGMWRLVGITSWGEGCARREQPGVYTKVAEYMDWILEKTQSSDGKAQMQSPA

- release of bradykinin from 1-chain HMWK (20 nM) by pKal (0.15 nM) after 1 h with DX-2930, bradykinin ELISA; blocks the proteolysis of HMWK by pKal [1]: 1.3 nM
- Ki [2]: 0.07 nM
- Ki [3]: 0.12 nM
B1: DX-2930, fully human IgG1 monoclonal antibody (antibody, V domains shown)
VH: EVQLLESGGGLVQPGGSLRLSCAASGFTFSHYIMMWVRQAPGKGLEWVSGIYSSGGITVYADSVKGRFTISRDNSKNTLYLQMNSLRAEDTAVYYCAYRRIGVPRRDEFDIWGQGTMVTVSS
VL: DIQMTQSPSTLSASVGDRVTITCRASQSISSWLAWYQQKPGKAPKLLIYKASTLESGVPSRFSGSGSGTEFTLTISSLQPDDFATYYCQQYNTYWTFGQGTKVEIK
